The source of these data is publication doi:10.1101/2023.03.17.533217 (2023).

The labels stand for the following.
B1: inhibiting monobody Mb2 (designed binder)
chain: GSVSSVPTKLEVVAATPTSLLISWDAPAVTVVHYVITYGETGGNSPVQEFTVPGSKSTATISGLKPGVDYTITVYAIDFYWGSYSPISINYRT
B2: Aurora A kinase (AurA), residues 122-403, dephosphorylated (domain or fragment)
chain: ESKKRQWALEDFEIGRPLGKGKFGNVYLAREKQSKFILALKVLFKAQLEKAGVEHQLRREVEIQSHLRHPNILRLYGYFHDATRVYLILEYAPLGTVYRELQKLSKFDEQRTATYITELANALSYCHSKRVIHRDIKPENLLLGSAGELKIADFGWSVHAPSSRRTTLCGTLDYLPPEMIEGRMHDEKVDLWSLGVLCYEFLVGKPPFEANTYQETYKRISRVEFTFPDFVTEGARDLISRLLKHNPSQRPMLREVLEHPWITANSSKPSNCQNKESASKQS
B3: activating monobody Mb1 (designed binder)
chain: GSVSSVPTKLEVVAATPTSLLISWDAQTYQMYDYVSYYRITYGETGGNSPVQEFTVPGYYSTATISGLKPGVDYTITVYAEGYYSSYSPISINYRT

Assay [1] deals with B2. Nature of the assay: ITC; danusertib.
Assay [2] deals with B2. Nature of the assay: ITC. (ITC needs no label: the signal is the heat of the interaction.)
The target in assay [3] is Mb3. Briefly: ITC.
For assay [4], the target named is Mb3. Nature of the assay: ITC; danusertib.
Assay [5] has as its target B2. Briefly: ITC; 50 µM danusertib.
Assay [6] has as its target B2. Nature of the assay: ITC; 150 µM danusertib.

In general, Kd refers to the constant that tells how readily two partners part at equilibrium. A low value points to a tighter complex. With B1, the Kd in assay [1] was determined as 889 nM; in assay [2], 1500 nM.

For the molecule B2, the values for the Kd in the assay with Mb3 [3] and with Mb3 [4] were 180 nM and 69 nM, respectively.

For the molecule B3, the Kd in assay [5] was 18000 nM; in assay [6] it was 17700 nM; in assay [2], 952 nM.
